Results: the supplement of paper PMC10126150
± gives the standard deviation of the averaged measurements.

system: ATP; experiment: switch fluorescence ratio, 500 uM ATP over buffer (Cy3 cluster intensity, sum of 5 cycles each) (fold (ratio)); higher = stronger signal-on switching upon ATP binding; sequences stand for … in TCGTCGGCAGCGTCAGATGTGTATAAGAGACAGTTTTTTTTTTTTTTTTTTTTTTTTT…TC; conditions: aptamer strand: ATP DNA aptamer (quencher-CACCTGGGGGAGTATTGCGGAGGAAGG + anchor), 100 nM annealed; ATP concentration: 500 uM
Summary of the method: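 Clusters carrying Cy3-labelled switching strands on a modified Illumina MiSeq flow-cell were annealed to 100 nM quencher-labelled ATP aptamer and imaged in selection buffer. They were imaged again after 15 min with 500 uM ATP at 22 °C, over five buffer/ATP cycles with NaOH stripping and re-annealing in between. For each cluster, the fluorescence ratio is the summed Cy3 intensity of the target cycles divided by that of the buffer cycles, averaged per switch-domain sequence. Clusters outside 100-1000 RFU were left out.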
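Further: ATP exposure 15 min at 22 °C before imaging.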

Row | Sequence | switch fluorescence ratio
1 | ATAACGGCCT | 1.007 ± 0.0099
2 | GGAGGGGGAA | 1 ± 0.031
3 | TTGGTTGGAG | 0.996 ± 0.021
4 | CTTAACAGAA | 0.9912 ± 0.0059
5 | TTTAACCAAT | 1.02 ± 0.064
6 | TTTTATGGTT | 0.997 ± 0.032
7 | ATTCTTTGGG | 1.01 ± 0.02
8 | AGATGGATTA | 1.025 ± 0.0024
9 | GGCTATTAAA | 1.01 ± 0.011
10 | TTTGGGCTGG | 1.01 ± 0.06
11 | TGGGTTTTAA | 0.999 ± 0.025
12 | TAGGACTAGA | 0.9597 ± 0.0039
13 | GTGGGGCTGG | 1.008 ± 0.0055
14 | ATTAGAGGGA | 1.01 ± 0.029
15 | TTTAGCAGGT | 1.05 ± 0.014
16 | GCTGTTTCCC | 0.989 ± 0.024
17 | TTTTTTATCC | 1.03 ± 0.089
18 | TCTCGGCTGG | 0.9962 ± 0.001
19 | GTTTTTGACT | 0.964 ± 0.03
20 | TCTGTTTTTT | 0.989 ± 0.01
21 | ATGCATGCGT | 1 ± 0.048
22 | TTTCATGTTA | 0.987 ± 0.0084
23 | TAGGGGTGAT | 1.02 ± 0.047

Row | Sequence | switch fluorescence ratio
24 | TTGAATTAAG | 0.982 ± 0.032
25 | ACGTTAGGGT | 1.04 ± 0.058
26 | GAGATTTCAT | 0.982 ± 0.036
27 | CTGTAACGAG | 1.008 ± 0.0075
28 | ACATATAGAG | 1.051 ± 0.0097
29 | GACTTTACGG | 1.06 ± 0.048
30 | GGTGAGTTAC | 0.98 ± 0.013
31 | ATTGTTTTTC | 1.04 ± 0.073
32 | TACGTGTAGA | 1.02 ± 0.056
33 | ACTATGAGCC | 1.01 ± 0.021
34 | AAGGAATTGG | 0.992 ± 0.0042
35 | ACTCGATGTG | 0.989 ± 0.045
36 | TTACTTAGGT | 1.03 ± 0.068
37 | TTCGTTAGCG | 0.996 ± 0.022
38 | ACTAGGGTTT | 1.018 ± 0.0027
39 | CAGAGGGGTT | 1 ± 0.021
40 | GGGTGACGCG | 1.01 ± 0.022
41 | CCAGTTGATG | 0.991 ± 0.057
42 | GGTGGTGAGC | 1 ± 0.026
43 | TAGGATGGAG | 0.97358 ± 0.00078
44 | ATTTGATCGA | 1.02 ± 0.075
45 | CGGGTTTTGA | 1.003 ± 0.0086
46 | CTAACTGTTA | 0.99 ± 0.015

Row | Sequence | switch fluorescence ratio
47 | CGTGGGGGAC | 0.997 ± 0.033
48 | AGGAGAATCT | 1 ± 0.025
49 | GGTATTGGGA | 0.989 ± 0.018
50 | GGTAGACTTT | 0.967 ± 0.017
51 | ATCGTGGGAT | 1.01 ± 0.0081
52 | CCGGGGAGGG | 1.08 ± 0.053
53 | TAGATGCGGT | 1.01 ± 0.032
54 | TTAAGGGGG | 1.03 ± 0.012
55 | TAGTCCCCCC | 1.21 ± 0.2
56 | TCTGTTAAT | 1.11 ± 0.18
57 | AGCTTGTGAA | 1.01 ± 0.011
58 | AGGTGTGCGC | 1.01 ± 0.07
59 | TTTAGGTAAC | 0.9922 ± 0.0079
60 | TTGGCGAGTT | 1.007 ± 0.002
61 | GCTCCCTGAG | 1.056 ± 0.0076
62 | ATTCGGTCAT | 1 ± 0.015
63 | TTCTGTATTG | 1.03 ± 0.035
64 | AACATTAAGC | 1.04 ± 0.021
65 | GCGGGAAAGT | 0.9568 ± 0.009
66 | CACTAGAGGA | 1.022 ± 0.0057
67 | TTTTGAGGG | 1.07 ± 0.061
68 | CGATTTTGTA | 1.01 ± 0.051
69 | AATGTTTGTA | 0.9936 ± 0.0094

Row | Sequence | switch fluorescence ratio
70 | ACCAACCGTG | 1.1028 ± 0.00051
71 | TTCCGGTTCT | 1.03 ± 0.013
72 | TTGTTTGGGT | 0.984 ± 0.014
73 | TGGAAGAGGC | 1.47 ± 0.64
74 | ACGGGGGGAT | 1.04 ± 0.089
75 | TTCGGGGAT | 0.982 ± 0.032
76 | GGGCCGGGGT | 0.993 ± 0.04
77 | AGTAGGTTAG | 0.989 ± 0.04
78 | AGGAAAACAG | 1.026 ± 0.0032
79 | GCTATGAGTA | 0.9832 ± 0.0097
80 | TTTTTGCATG | 1.03 ± 0.047
81 | GCACGAGGAA | 1.043 ± 0.0063
82 | GGGTTATTGG | 0.991 ± 0.04
83 | ATATGTGGTA | 1.01 ± 0.031
84 | AAGTGCTGTG | 0.996 ± 0.029
85 | CAAAGGGGGT | 1 ± 0.016
86 | TTGTATTAAT | 0.975 ± 0.031
87 | TACGGGAGGC | 1.02 ± 0.032
88 | GAGAAGGATT | 0.99 ± 0.046
89 | GATTAACGTG | 0.9917 ± 0.0044
90 | TTGTTGTGCT | 0.961 ± 0.033
91 | GAACTTTCTG | 1.006 ± 0.0063
92 | GGGGAATAGT | 1.26 ± 0.32

Row | Sequence | switch fluorescence ratio
93 | CCTCTATTGG | 1.045 ± 0.0041
94 | TAATGAGGTC | 0.99 ± 0.046
95 | GGGGGTACGT | 0.989 ± 0.03
96 | AGGCGTTGAG | 0.976 ± 0.018
97 | GACATTGGCT | 0.948 ± 0.03
98 | AGATCCATTT | 0.991 ± 0.055
99 | ACTTGGACAT | 1.04 ± 0.018
100 | TTGGACTCGG | 0.997 ± 0.034
101 | ATTGGGTTTT | 0.999 ± 0.022
102 | CAGGCGGGGA | 1.004 ± 0.0074
103 | CGGCATCGAA | 0.985 ± 0.036
104 | CGATACGTGG | 1.02 ± 0.042
105 | CTGGGGGTAT | 1 ± 0.03
106 | AGACTGGAGC | 1.06 ± 0.026
107 | TCGCGACTTG | 0.9946 ± 0.0054
108 | CCAGGCGCGG | 1.05 ± 0.055
109 | TGTTGTGGTG | 1 ± 0.033
110 | TAATGGTGT | 1.02 ± 0.041
111 | TGCTGGGATT | 1.02 ± 0.044
112 | AAATTGATCC | 0.964 ± 0.016
113 | GTTTTGGCGT | 0.984 ± 0.021
114 | GAAGGTTAAC | 1.03 ± 0.1
115 | TGTTTGGGGA | 0.997 ± 0.018

Row | Sequence | switch fluorescence ratio
116 | GTTGACTGGT | 0.95 ± 0.016
117 | ATAGAATGAT | 0.995 ± 0.017
118 | GGGGAGTGGG | 0.989 ± 0.051
119 | TTGCTAAAAG | 1.02 ± 0.028
120 | TTTTTATTCC | 1.02 ± 0.034
121 | ATCGTATGGT | 1 ± 0.023
122 | TTTTGAGTAT | 0.967 ± 0.035
123 | GGTGTTAGGT | 0.9925 ± 0.0029
124 | GCGGAAGGCG | 1 ± 0.018
125 | ATACTATCTA | 1.03 ± 0.017
126 | GTGTTGCCCG | 1.07 ± 0.038
127 | TTTTTTGCGG | 1.08 ± 0.22
128 | TTTTTTAGAT | 0.985 ± 0.022
129 | GTAACCAATT | 1.01 ± 0.021
130 | ACTGGAAGTG | 1.03 ± 0.0039
131 | ACGGCTGAGC | 1.04 ± 0.03
132 | TAAGACTGAT | 1.016 ± 0.0019
133 | ATTTGCAGTG | 0.994 ± 0.021
134 | TGTTTGAGGT | 0.999 ± 0.033
135 | CGGGGCCATG | 1.02 ± 0.068
136 | AATGAATGCA | 1.004 ± 0.0014
137 | AATTTTAGTA | 1.02 ± 0.019
138 | ATTTAAAGGT | 0.964 ± 0.018

Row | Sequence | switch fluorescence ratio
139 | TTGGTGGATC | 1.03 ± 0.03
140 | AATAGCCTTG | 1.02 ± 0.013
141 | GCTGGTAGGG | 1.01 ± 0.026
142 | GGGGATTCAT | 0.986 ± 0.012
143 | ACATTCATCG | 1.06 ± 0.034
144 | TTTTAACATT | 1.06 ± 0.081
145 | AGGGTACCTG | 1.01 ± 0.015
146 | TTATTTAGGA | 0.989 ± 0.027
147 | GAGCGTGTGA | 1.02 ± 0.019
148 | TTGGGGAGTT | 1.01 ± 0.044
149 | TTAGGCTGTG | 0.986 ± 0.03
150 | CACGAGGGGA | 1.02 ± 0.057
151 | AGACGGTCTG | 0.973 ± 0.0098
152 | AATTGGGGGT | 0.992 ± 0.038
153 | GAGTGGGGA | 1.03 ± 0.04
154 | TACTTAGGTT | 0.98 ± 0.024
155 | CCTGGCTGAT | 1.11 ± 0.058
156 | GTTCGTATTT | 0.997 ± 0.021
157 | ATTCGCCTAG | 0.987 ± 0.012
